# B1: t-PA: recombinant tissue plasminogen activator, thrombolytic agent (Genentech) (protein, UniProt P00750 36-562, looked up)
# Tissue-type plasminogen …: SYQVICRDEKTQMIYQQHQSWLRPVLRSNRVEYCWCNSGRAQCHSVPVKSCSEPRCFNGGTCQQALYFSDFVCQCPEGFAGKCCEIDTRATCYEDQGISYRGTWSTAESGAECTNWNSSALAQKPYSGRRPDAIRLGLGNHNYCRNPDRDSKPWCYVFKAGKYSSEFCSTPACSEGNSDCYFGNGSAYRGTHSLTESGASCLPWNSMILIGKVYTAQNPSAQALGLGKHNYCRNPDGDAKPWCHVLKNRRLTWEYCDVPSCSTCGLRQYSQPQFRIKGGLFADIASHPWQAAIFAKHRRSPGERFLCGGILISSCWILSAAHCFQERFPPHHLTVILGRTYRVVPGEEEQKFEVEKYIVHKEFDDDTYDNDIALLQLKSDSSRCAQESSVVRTVCLPPADLQLPDWTECELSGYGKHEALSPFYSERLKEAHVRLYPSSRCTSQHLLNRTVTDNMLCAGDTRSGGPQANLHDACQGDSGGPLVCLNDGRMTLVGIISWGLGCGQKDVPGVYTKVTNYLDWIRDNMRP
# Legend:
# platelets [1] = test: platelet aggregation in platelet-rich plasma of AMI patients during first 24 hours after r-PA or t-PA; format: in vivo, human; conditions: 3, 6, 12, 24 hours; r-PA: all agonists except ristocetin
# Text: Twenty-three consecutive patients admitted to the emergency rooms of St. Agnes Hospital, or the Union Memorial Hospital between July and December of 1996 with a diagnosis of acute myocardial infarction were included. All patients were enrolled in the randomized trial of Reteplase (r-PA) versus accelerated Alteplase (t-PA) for the treatment of acute myocardial infarction, (GUSTO-III trial). […]
# The schedule of blood drawing, sample preparation and processing were critical issues of the study design, and were monitored by an independent observer. […]
# Citrate and whole blood were immediately mixed 1:9 and then centrifuged at 1200 g for 2.5 minutes in order to obtain platelet-rich plasma (PRP) which was kept at room temperature for use within 1 hour. Platelet counts were determined for each PRP sample with Coulter Counter ZM (Coulter Co., Hialeah, Fla.). […] PA was expressed as the maximum percentage of light transmittance change from the baseline using platelet-poor plasma as a reference at the end of the recording time. PA curves were recorded for 4 minutes and analyzed according to internationally established standards (see, e.g. Ruggeri, Z. M. (1994) Semin. Hemat. 31:229-239). […]
# platelets [2] = test: rapid platelet-function assay (Ultegra); format: cell-based, human; conditions: TNK 12 μg/mL, t-PA 4 μg/mL
# Description: (§1) Blood samples for the in vitro study were obtained from 9 healthy volunteers. None of the subjects smoked or had hypertension, diabetes, or an abnormal hematocrit. None had received aspirin or any other antiplatelet drugs. All subjects underwent blood sampling after at least 30 minutes of rest and 2 or more hours of fasting. Blood was drawn from an antecubital vein between 8 am and 10 am in order to avoid any diurnal influence. A 21-gauge butterfly needle was used to draw blood into a tube containing 3.8% sodium citrate (1:9 volume); the first 1.5 mL of free running blood was discarded. One tube was kept as an internal control. A second tube was incubated with tenecteplase (TNK) for 30 minutes at room temperature in order to achieve a final concentration of 12 μg/mL. The third tube was similarly incubated with alteplase (t-PA) to achieve a concentration of 4 μg/mL. The concentrations of TNK and t-PA that were chosen approximated conventional plasma levels observed in patients receiving TNK and t-PA bolus (30 mg, and 15 mg, respectively; data on file, Genentech, Inc., South San Francisco, Calif.). Fresh solutions of TNK and t-PA were prepared in Dulbecco's phosphate buffered saline (DPBS) ex tempore on the morning of the platelet studies.
# With rapid platelet-function assay (RPFA (Ultegra®); Accumetrics, Inc., San Diego, Calif.), polystyrene beads coated with fibrinogen are placed in a cartridge along with a peptide that activates the thrombin receptor. A whole blood citrate mixture is added to the cartridge, and agglutination between platelets and coated beads is recorded. The data mirror turbidometric platelet aggregation and reflect the degree of platelet glycoprotein IIb/IIIa blockade.
# For all comparisons, statistical analyses were done by using repeated measures ANOVA. Post hoc comparison was performed by use of the Bonferroni t-test to identify specific differences in platelet aggregation and receptor expression between patients treated with TNK and t-PA, and controls. […] Normally distributed data were expressed as mean±SE, and skewed data as median (range). […]
# platelets [3] = test: in vitro whole blood flow cytometry of platelet receptors and platelet-monocyte aggregates; format: cell-based, human; conditions: TNK 12 μg/mL, t-PA 4 μg/mL
# Description: as §1
# The surface expression of platelet receptors was determined by flow cytometry by using the following monoclonal antibodies: CD 41 (glycoprotein [GP] IIb/IIIa, α IIbβ3) CD 42b (GP Ib), CD 62p (P-selectin), CD 51/CD 61 (αvβ3, or vitronectin receptor), CD 31 (platelet endothelial cell adhesion molecule [PECAM]-1), CD 107a (LAMP-1), CD 107b (LAMP-2), CD 63 (LIMP or LAMP-3), and CD 151 (PETA-3) (PharMingen, San Diego, Calif.). Platelet-leukocyte interactions were assessed by using dual antibodies for a pan-platelet marker (CD 41), together with CD 14, a monocyte/macrophage marker. The blood-citrate mixture (50 μl) was diluted with 450 μl Tris buffered saline (TBS) (10 mmol/L Tris, 0.15 mol/L sodium chloride) and mixed by gently inverting an Eppendorf tube 2 times. The corresponding antibody was then added (5 μl) and incubated at 4° C. for 30 minutes. After incubation, 400 μl of 2% buffered paraformaldehyde was added for fixation. The samples were analyzed on a Becton Dickinson FACScan flow cytometer set up to measure fluorescent light scatter, as previously described. All parameters were collected by using 4-decade logarithmic amplification. The data were collected in list mode files and then analyzed. P-selectin was expressed as percent positive cells. Other antigens were expressed as log mean fluorescence intensity.
# For all comparisons, statistical analyses were done by using repeated measures ANOVA. Post hoc comparison was performed by use of the Bonferroni t-test to identify specific differences in platelet aggregation and receptor expression between patients treated with TNK and t-PA, and controls. The Mann-Whitney U test was used to analyze non-parametric data. Normally distributed data were expressed as mean±SE, and skewed data as median (range). Probability values of P<0.05 were regarded as statistically significant. Linear regression analysis was applied to normally distributed data for all study participants by using the Statview 4.1 program for analysis.
molecule,measurement,setting,value
B1,"platelet aggregation, change between baseline and other time points",platelets [1],no statistically significant differences
same,platelet activation units (Ultegra) compared with DPBS,platelets [2],reduction
same,expression of PECAM-1 compared with saline-treated samples,platelets [3],trend toward diminished expression
same,expression of glycoprotein IIb/IIIa compared with saline-treated samples,platelets [3],reduced expression
same,formation of platelet-monocyte aggregates compared with saline-treated samples,platelets [3],trend toward diminished
